Measurements as given in the RNAGym collection of RNA variant scans (doi:10.7554/elife.80360).

B1: CPEB3 Ribozyme (parent)
chain: GGGGGCCACAGCAGAAGCGUUCACGUCGCGGCCCCUGUCAGAUUCUGGUGAAUCUGCGAAUUCUGCUGU

Variants of: B1
Assay: self-cleavage, relative activity (ratio to wild type); higher = more cleavage; co-transcriptional

Variant	self-cleavage
GGGGGCCACAGCAGAAGCGUUCACGUCGCGGCCCCUGUCAGAUUCUGGUGAAGCUGUGAAUUCUGCUGU [U53G C57U]	0.311
GGGGGCCACAGCAGAAGCGUUCACGUCGCGGCCCCUGUCAGAUUCUGGUGAAGCUGAGAAUUCUGCUGU [U53G C57A]	0.327
GGGGGCCACAGCAGAAGCGUUCACGUCGCGGCCCCUGUCAGAUUCUGGUGAAGCUCCGAAUUCUGCUGU [U53G G56C]	0.331
GGGGGCCACAGCAGAAGCGUUCACGUCGCGGCCCCUGUCAGAUUCUGGUGAAGCUACGAAUUCUGCUGU [U53G G56A]	0.553
GGGGGCCACAGCAGAAGCGUUCACGUCGCGGCCCCUGUCAGAUUCUGGUGAAGCUUCGAAUUCUGCUGU [U53G G56U]	0.401
GGGGGCCACAGCAGAAGCGUUCACGUCGCGGCCCCUGUCAGAUUCUGGUGAAGCUGCGAAUUCUACUGU [U53G G65A]	0.707
GGGGGCCACAGCAGAAGCGUUCACGUCGCGGCCCCUGUCAGAUUCUGGUGAAGCUGCGAAUUCUCCUGU [U53G G65C]	0.704
GGGGGCCACAGCAGAAGCGUUCACGUCGCGGCCCCUGUCAGAUUCUGGUGAAGCUGCGAAUUCUUCUGU [U53G G65U]	0.606
GGGGGCCACAGCAGAAGCGUUCACGUCGCGGCCCCUGUCAGAUUCUGGUGAAGGUGCGAAUUCUGCUGU [U53G C54G]	0.673
GGGGGCCACAGCAGAAGCGUUCACGUCGCGGCCCCUGUCAGAUUCUGGUGAAGUUGCGAAUUCUGCUGU [U53G C54U]	0.815
GGGGGCCACAGCAGAAGCGUUCACGUCGCGGCCCCUGUCAGAUUCUGGUGAACCUGCCAAUUCUGCUGU [U53C G58C]	0.94
GGGGGCCACAGCAGAAGCGUUCACGUCGCGGCCCCUGUCAGAUUCUGGUGAACCUGCAAAUUCUGCUGU [U53C G58A]	0.85
GGGGGCCACAGCAGAAGCGUUCACGUCGCGGCCCCUGUCAGAUUCUGGUGAACCAGCGAAUUCUGCUGU [U53C U55A]	0.364
GGGGGCCACAGCAGAAGCGUUCACGUCGCGGCCCCUGUCAGAUUCUGGUGAACCCGCGAAUUCUGCUGU [U53C U55C]	0.409
GGGGGCCACAGCAGAAGCGUUCACGUCGCGGCCCCUGUCAGAUUCUGGUGAACCGGCGAAUUCUGCUGU [U53C U55G]	0.303
GGGGGCCACAGCAGAAGCGUUCACGUCGCGGCCCCUGUCAGAUUCUGGUGAACCUGCGAAUUCCGCUGU [U53C U64C]	0.536
GGGGGCCACAGCAGAAGCGUUCACGUCGCGGCCCCUGUCAGAUUCUGGUGAACCUGCGAAUUCAGCUGU [U53C U64A]	0.525
GGGGGCCACAGCAGAAGCGUUCACGUCGCGGCCCCUGUCAGAUUCUGGUGAACCUGCGAAUUCGGCUGU [U53C U64G]	0.535
GGGGGCCACAGCAGAAGCGUUCACGUCGCGGCCCCUGUCAGAUUCUGGUGAACCUGCGAAGUCUGCUGU [U53C U61G]	0.58
GGGGGCCACAGCAGAAGCGUUCACGUCGCGGCCCCUGUCAGAUUCUGGUGAAGCUGCGAAUUCUGAUGU [U53G C66A]	0.629

Variant	self-cleavage
GGGGGCCACAGCAGAAGCGUUCACGUCGCGGCCCCUGUCAGAUUCUGGUGAACCUGCGAAUUCUGCUGG [U53C U69G]	0.993
GGGGGCCACAGCAGAAGCGUUCACGUCGCGGCCCCUGUCAGAUUCUGGUGAACCUGCGAAUUCUGCUGC [U53C U69C]	1.05
GGGGGCCACAGCAGAAGCGUUCACGUCGCGGCCCCUGUCAGAUUCUGGUGAAGCUGCGAAUUCUGCUGU [U53G]	0.927
GGGGGCCACAGCAGAAGCGUUCACGUCGCGGCCCCUGUCAGAUUCUGGUGAACCUGCGAAUGCUGCUGU [U53C U62G]	0.384
GGGGGCCACAGCAGAAGCGUUCACGUCGCGGCCCCUGUCAGAUUCUGGUGAACCUGCGAAUACUGCUGU [U53C U62A]	0.549
GGGGGCCACAGCAGAAGCGUUCACGUCGCGGCCCCUGUCAGAUUCUGGUGAAGCUGCUAAUUCUGCUGU [U53G G58U]	0.939
GGGGGCCACAGCAGAAGCGUUCACGUCGCGGCCCCUGUCAGAUUCUGGUGAAGCUGCCAAUUCUGCUGU [U53G G58C]	0.847
GGGGGCCACAGCAGAAGCGUUCACGUCGCGGCCCCUGUCAGAUUCUGGUGAACCUGCGAAUUCUACUGU [U53C G65A]	0.472
GGGGGCCACAGCAGAAGCGUUCACGUCGCGGCCCCUGUCAGAUUCUGGUGAACCUGCGAAUUCUCCUGU [U53C G65C]	0.407
GGGGGCCACAGCAGAAGCGUUCACGUCGCGGCCCCUGUCAGAUUCUGGUGAAGCUGCGAGUUCUGCUGU [U53G A60G]	0.793
GGGGGCCACAGCAGAAGCGUUCACGUCGCGGCCCCUGUCAGAUUCUGGUGAAGCUGCGACUUCUGCUGU [U53G A60C]	0.308
GGGGGCCACAGCAGAAGCGUUCACGUCGCGGCCCCUGUCAGAUUCUGGUGAAGCUGCGAUUUCUGCUGU [U53G A60U]	0.301
GGGGGCCACAGCAGAAGCGUUCACGUCGCGGCCCCUGUCAGAUUCUGGUGAACCUACGAAUUCUGCUGU [U53C G56A]	0.539
GGGGGCCACAGCAGAAGCGUUCACGUCGCGGCCCCUGUCAGAUUCUGGUGAACCUCCGAAUUCUGCUGU [U53C G56C]	0.39
GGGGGCCACAGCAGAAGCGUUCACGUCGCGGCCCCUGUCAGAUUCUGGUGAACCUGCGAAUUCUGCUUU [U53C G68U]	0.986
GGGGGCCACAGCAGAAGCGUUCACGUCGCGGCCCCUGUCAGAUUCUGGUGAACCUGCGAAUUCUGCUAU [U53C G68A]	0.977
GGGGGCCACAGCAGAAGCGUUCACGUCGCGGCCCCUGUCAGAUUCUGGUGAACCUGCGAAUUCUGCUCU [U53C G68C]	1.02
GGGGGCCACAGCAGAAGCGUUCACGUCGCGGCCCCUGUCAGAUUCUGGUGAAGCUGCGCAUUCUGCUGU [U53G A59C]	0.422
GGGGGCCACAGCAGAAGCGUUCACGUCGCGGCCCCUGUCAGAUUCUGGUGAAGCUGCGGAUUCUGCUGU [U53G A59G]	0.894
